Source: patent publication US20220308062A1, “METHODS FOR PREDICTING DRUG RESPONSIVENESS IN SAMPLES FROM CANCER SUBJECTS” (Board of Regents, The University of Texas System, priority 2019, published 2022)

Tests used:
Assay type in all cases: cell-based, human
[1] = tested on: patient-derived organoids (PDOs); assay: Patient-derived organoid CellTiter-Glo cell viability; details: Homo sapiens, 72 h; read-out: reduction in cell viability
Description: Patient-derived organoids (PDOs). Tumor tissues were minced on ice into 1 mm^3 small pieces. Tumor pieces (˜20 μl in volume) were resuspended in 200 μl Matrigel and seeded into 24 well plates for 15 min until gel solidify, followed by culture in advanced DMEM/F12 medium supplemented with B27 and N2 (Thermo Fisher Scientific), 0.01% BSA (Roche), 100 units/m penicillin-streptomycin (Thermo Fisher Scientific), and others (Table 4) for 4-8 weeks to grow organoids. […] The CellTiter-Glo Luminescent Cell Viability assay was used to determine drug responsiveness.

[2] = tested on: PMA-stimulated U937 and THP-1; assay: Western blot of IL-11 treated macrophages; details: serial dosages, 72 hr
Description: Western blot analysis. PMA-stimulated U937 and THP-1 were cultured and treated with serial dosages of IL-11 over 72 hr. Cell lysates were harvested using RIPA buffer. The concentration of protein lysates was determined by Pierce™ BCA Protein Assay Kit (Thermo fisher). Forty micrograms of the total protein extracts were separated by NuPAGE™ 4-12% Bis-Tris Protein Gels (Thermo fisher) and transferred to PVDF membrane. The membranes were then blocked with 5% of Blotting-Grade Blocker (BioRad) in TBST and probed using primary antibodies against pSTAT3, STAT3 and GAPDH (Cell Signaling Technology; 2118S). Membranes were incubated in HRP-linked secondary antibodies following dilution with TBST (1:5000) at room temperature for one hour. Blots were developed using Western Lightning Plus-ECL Chemiluminescent Reagents (Perkin Elmer, Waltham, Mass.) and Syngene G:BOX Imaging System.

[3] = tested on: PMA-stimulated U937; assay: Immunofluorescence of IL-11 treated U937; details: 25 ng/ml, 72 hr
Description: Immunofluorescence. PMA-stimulated U937 were cultured and treated with 25 ng/ml IL-11 over 72 hr. Cells were then fixed with 4% paraformaldehyde for 15 minutes. After fixation, cells were incubated with fluorescence conjugated primary antibody (CD14, CD86 and CD163) for 1 hour. Slides were mounted with mounting medium with DAPI and the images were taken with fluorescence microscope.

Molecule | cytotoxicity at 15 µM [1] [%] | pSTAT3 (western blot) [2] | CD163 (immunofluorescence) [3]
N#CC[C@H](C1CCCC1)n1cc(-c2ncnc3[nH]ccc23)cn1 [ruxolitinib] | 10 to 20 | – | –
IL-11: cytokine, a member of the IL-6 cytokine family, used to treat PMA-stimulated U937 and THP-1 macrophages (protein, UniProt P20809 22-199, looked up) Interleukin-11: PGPPPGPPRVSPDPRAELDSTVLLTRSLLADTRQLAAQLRDKFPADGDHNLDSLPTLAMSAGALGALQLPGVLTRLRADLLSYLRHVQWLRRAGGSSLKTLEPELGTLQARLDRLLRRLQLLMSRLALPQPPPDPPAPPLAPPSSAWGGIRAAHAILGGLHLTLDWAVRGLLLLKTRL | – | up-regulated | up-regulated
